Sequences and labels used below:
B1: LINE1-mini (parent)
chain: GGCAGAGCUCAACACAGCGUGGCAAAGUGGCUGUGGCUAGACUGCC

This series covers variants of B1. The experiment in a line: self-cleavage, relative activity (ratio to wild type); higher = more cleavage; in vitro, sequencing; the parent is a self-cleaving ribozyme.
For the variant A12C G19C, the self-cleavage amounted to 0.02.

A12C G19A: the self-cleavage is 0.02.

For A12C G19U, the self-cleavage is 0.03.

As to A11G C13G, the self-cleavage is 0.02.

Consider A11G C13U, for which the self-cleavage is 0.03.

With A11G C13A, the self-cleavage was 0.04.

With A12C U43A, the self-cleavage was 0.03.

On to A12C U43C, for which the self-cleavage was 0.01.

As to A12C U43G, the self-cleavage was determined as 0.01.

For A11G G22C, the self-cleavage stood at 0.02.

With A11G G22U, the self-cleavage came to 0.05.

As for A11G G22A, the self-cleavage was found to be 0.03.

Turning to A12G C31G, the self-cleavage came out at 0.04.

For A12G C31A, the self-cleavage is 0.16.

On to A11U U20G, for which the self-cleavage turned out to be 0.16.

A11U U20C: the self-cleavage worked out at 0.07.

For the variant A11U U20A, the self-cleavage stood at 0.07.

For the variant A11G G35A, the self-cleavage is 0.05.

Take A11G G35U: the self-cleavage was 0.03.

For A11G G35C, the self-cleavage was found to be 0.02.

For A11G G17C, the self-cleavage came to 0.04.

In the case of A11G G17A, the self-cleavage turned out to be 0.04.

Turning to A11G G17U, the self-cleavage was 0.03.

A11G U28C: the self-cleavage is 0.03.

Turning to A11G U28G, the self-cleavage amounted to 0.02.

Turning to A11G U28A, the self-cleavage was determined as 0.03.

With A11G G30C, the self-cleavage stood at 0.04.

A11G G30U: the self-cleavage was 0.04.

In the case of A11G G30A, the self-cleavage came out at 0.04.

For A11U C31U, the self-cleavage stood at 0.1.

A11U C31G: the self-cleavage stood at 0.03.

A11U C31A: the self-cleavage amounted to 0.04.

Take A12C C23A: the self-cleavage was 0.02.

For the variant A12C C23U, the self-cleavage is 0.08.

As to A12C C23G, the self-cleavage stood at 0.02.

For A12C U34G, the self-cleavage was 0.02.

For A12C U34A, the self-cleavage amounted to 0.02.

For the variant A12C U34C, the self-cleavage was determined as 0.03.

Turning to A11G U38A, the self-cleavage was determined as 0.02.

With A11G U38G, the self-cleavage is 0.02.

A11G U38C: the self-cleavage came to 0.03.

For A12G A39C, the self-cleavage turned out to be 0.04.

Turning to A12G A39G, the self-cleavage is 0.01.

As to A12G A39U, the self-cleavage came to 0.08.

Take A11G C46A: the self-cleavage stood at 0.04.

On to A11G C46U, for which the self-cleavage worked out at 0.02.

Regarding A11G C46G, the self-cleavage turned out to be 0.02.

Regarding A12G C23G, the self-cleavage stood at 0.05.

As for A12G C23A, the self-cleavage is 0.02.

Regarding A12G C23U, the self-cleavage stood at 0.03.

As for A12G C13A, the self-cleavage came to 0.07.

Consider A12G C13G, for which the self-cleavage came to 0.04.

With A12G C13U, the self-cleavage came out at 0.06.

As to A12C C46U, the self-cleavage is 0.02.

Regarding A12C C46A, the self-cleavage is 0.02.

For the variant A12C C46G, the self-cleavage was 0.05.

Turning to A11U A14G, the self-cleavage came out at 0.03.

Take A11U A14C: the self-cleavage stood at 0.01.

A11U A14U: the self-cleavage was determined as 0.08.

Turning to A11G G40A, the self-cleavage is 0.03.

Regarding A11G G40C, the self-cleavage is 0.02.

For A11G G40U, the self-cleavage is 0.03.

For the variant A12C G36A, the self-cleavage was 0.2.

A12C G36C: the self-cleavage came out at 0.02.

Consider A12C G36U, for which the self-cleavage is 0.03.

Take A12C G27U: the self-cleavage came out at 0.02.

For the variant A12C G27C, the self-cleavage stood at 0.03.

Turning to A12C G27A, the self-cleavage was determined as 0.03.

For A11G C42A, the self-cleavage came out at 0.02.

A11G C42G: the self-cleavage was found to be 0.01.

For A11G C42U, the self-cleavage turned out to be 0.01.

Regarding A12G A24U, the self-cleavage was determined as 0.03.

As to A12G A24C, the self-cleavage was found to be 0.02.

As to A12G A24G, the self-cleavage turned out to be 0.03.

Turning to A11U G17A, the self-cleavage amounted to 0.04.

In the case of A11U G17U, the self-cleavage worked out at 0.03.

For the variant A11U G17C, the self-cleavage was found to be 0.12.

Regarding A12C, the self-cleavage worked out at 0.03.

For A12G, the self-cleavage turned out to be 0.04.

On to A11U U32A, for which the self-cleavage worked out at 0.03.

As for A11U U32C, the self-cleavage came to 0.04.

Take A11U U32G: the self-cleavage came out at 0.03.

As for A12C G30A, the self-cleavage stood at 0.03.

Consider A12C G30C, for which the self-cleavage is 0.04.

Take A12C G30U: the self-cleavage is 0.01.

On to A11U U34A, for which the self-cleavage stood at 0.04.

In the case of A11U U34C, the self-cleavage was found to be 0.05.

On to A11U U34G, for which the self-cleavage came to 0.02.

On to A12C U38A, for which the self-cleavage stood at 0.01.

For A12C U38C, the self-cleavage was determined as 0.04.

Consider A12C U38G, for which the self-cleavage was 0.03.

In the case of A11U, the self-cleavage was 0.15.

Regarding A11G U43G, the self-cleavage worked out at 0.

A11G U43C: the self-cleavage turned out to be 0.02.

As to A11G U43A, the self-cleavage turned out to be 0.01.

For the variant A11U U43G, the self-cleavage is 0.

With A11U U43C, the self-cleavage was found to be 0.04.

A11U U43A: the self-cleavage is 0.02.

Regarding A11U G27A, the self-cleavage worked out at 0.16.

As to A11U G27U, the self-cleavage worked out at 0.13.

As for A11U G27C, the self-cleavage worked out at 0.14.

On to A11G G44C, for which the self-cleavage was found to be 0.03.

In the case of A11G G44A, the self-cleavage amounted to 0.03.

Consider A11G G44U, for which the self-cleavage came to 0.01.

Regarding A11G A39C, the self-cleavage was 0.04.

For A11G A39U, the self-cleavage was found to be 0.05.

On to A11G A39G, for which the self-cleavage is 0.03.

For the variant A11G C45U, the self-cleavage came to 0.03.

As to A11G C45G, the self-cleavage came out at 0.03.

With A11G C45A, the self-cleavage amounted to 0.03.

Turning to A12C A14C, the self-cleavage is 0.02.

As to A12C A14G, the self-cleavage was found to be 0.04.

On to A12C A14U, for which the self-cleavage was found to be 0.05.

A11U C23A: the self-cleavage came to 0.16.

As for A11U C23U, the self-cleavage was found to be 0.1.

As for A11U C23G, the self-cleavage was 0.11.

As to A11U G44A, the self-cleavage came out at 0.05.

Turning to A11U G44C, the self-cleavage was determined as 0.03.

Take A11U G44U: the self-cleavage worked out at 0.05.

In the case of A11U G40A, the self-cleavage is 0.03.

In the case of A11U G40U, the self-cleavage was found to be 0.04.

Regarding A11U G40C, the self-cleavage stood at 0.02.

Turning to A11G C31G, the self-cleavage was 0.03.

A11G C31A: the self-cleavage is 0.02.

On to A11G C31U, for which the self-cleavage turned out to be 0.02.

As for A12C A26C, the self-cleavage was determined as 0.02.

For the variant A12C A26U, the self-cleavage was 0.03.

As for A12C A26G, the self-cleavage is 0.01.

In the case of A11U A39G, the self-cleavage came out at 0.06.

On to A11U A39U, for which the self-cleavage is 0.05.

A11U A39C: the self-cleavage was 0.07.

On to A11U C18U, for which the self-cleavage came to 0.32.

With A11U C18G, the self-cleavage is 0.04.

As to A11U C18A, the self-cleavage turned out to be 0.07.

Consider A11G G19U, for which the self-cleavage was determined as 0.02.

Regarding A11G G19A, the self-cleavage amounted to 0.04.

On to A11G G19C, for which the self-cleavage was 0.03.

Consider A11U A41G, for which the self-cleavage was determined as 0.05.

A11U A41C: the self-cleavage came to 0.04.

For the variant A11U A41U, the self-cleavage worked out at 0.27.

Take A12C G17U: the self-cleavage came out at 0.02.

In the case of A12C G17A, the self-cleavage came out at 0.01.

Turning to A12C G17C, the self-cleavage stood at 0.02.

As to A12C U20A, the self-cleavage worked out at 0.03.

As for A12C U20C, the self-cleavage came out at 0.01.

Take A12C U20G: the self-cleavage came to 0.01.

On to A11U U28G, for which the self-cleavage came out at 0.12.

Turning to A11U U28A, the self-cleavage is 0.11.

As to A11U U28C, the self-cleavage turned out to be 0.22.

As for A11G C23A, the self-cleavage was found to be 0.04.

For the variant A11G C23U, the self-cleavage was found to be 0.02.

As for A11G C23G, the self-cleavage was determined as 0.03.

As for A11G A41G, the self-cleavage was found to be 0.02.

With A11G A41C, the self-cleavage came to 0.03.

As for A11G A41U, the self-cleavage turned out to be 0.02.

On to A11U G30A, for which the self-cleavage is 0.17.

With A11U G30U, the self-cleavage turned out to be 0.18.

Turning to A11U G30C, the self-cleavage is 0.13.

Consider A11U G22U, for which the self-cleavage stood at 0.15.

For the variant A11U G22C, the self-cleavage turned out to be 0.07.

With A11U G22A, the self-cleavage was 0.34.

A11U A26G: the self-cleavage is 0.13.

For A11U A26C, the self-cleavage came to 0.16.

As to A11U A26U, the self-cleavage came out at 0.12.

A11U G33A: the self-cleavage amounted to 0.03.

A11U G33C: the self-cleavage was found to be 0.02.

As for A11U G33U, the self-cleavage was 0.04.

Source of the values: the RNAGym collection of RNA variant scans (doi:10.7554/elife.90254).
